Experimental data from patent publication US20110059888A1.
[ ]: non-standard residue; d: D form. Arg(Me) = CNC(=N)NCCC[C@H](N)C(=O)O; Dap(CONH2) = NC(=O)NC[C@H](N)C(=O)O; Ala(cPr) = N[C@@H](CC1CC1)C(=O)O; Hyp = O=C(O)[C@@H]1C[C@@H](O)CN1; Aad = N[C@@H](CCCC(=O)O)C(=O)O; Cha = N[C@@H](CC1CCCCC1)C(=O)O; Cit = NC(=O)NCCC[C@H](N)C(=O)O; Cba = N[C@@H](CC1CCC1)C(=O)O; Abu = CC[C@H](N)C(=O)O; Dap = NC[C@H](N)C(=O)O; Aib = CC(C)(N)C(=O)O

B1: des(1)-Ac-[D-Tyr2,Aib3,Thr5,Cha6,Ala(cPr)8,Arg(Me)9,Trp10]MS10 (peptide)
peptide: Ac-[dY][Aib]NT[Cha]G[Ala(cPr)][Arg(Me)]W-NH2
SMILES: CNC(=N)NCCC[C@H](NC(=O)[C@H](CC1CC1)NC(=O)CNC(=O)[C@H](CC1CCCCC1)NC(=O)[C@@H](NC(=O)[C@H](CC(N)=O)NC(=O)C(C)(C)NC(=O)[C@@H](Cc1ccc(O)cc1)NC(C)=O)[C@@H](C)O)C(=O)N[C@@H](Cc1c[nH]c2ccccc12)C(N)=O
B2: des(1)-Ac-[D-Tyr2,Lys3,Thr5,Cha6,Ala(cPr)8,Arg(Me)9,Trp10]MS10 (peptide)
peptide: Ac-[dY]KNT[Cha]G[Ala(cPr)][Arg(Me)]W-NH2
modifications: not fully specified; printed as Ac-D-Tyr-Lys-Asn-Thr-Cha-Gly-Ala(cPr)-Arg(Me)-Trp-NH2
B3: des(1)-Ac-[D-Tyr2,Glu3,Thr5,Cha6,Ala(cPr)8,Trp10]MS10 (peptide)
peptide: Ac-[dY]ENT[Cha]G[Ala(cPr)]RW-NH2
SMILES: CC(=O)N[C@H](Cc1ccc(O)cc1)C(=O)N[C@@H](CCC(=O)O)C(=O)N[C@@H](CC(N)=O)C(=O)N[C@H](C(=O)N[C@@H](CC1CCCCC1)C(=O)NCC(=O)N[C@@H](CC1CC1)C(=O)N[C@@H](CCCNC(=N)N)C(=O)N[C@@H](Cc1c[nH]c2ccccc12)C(N)=O)[C@@H](C)O
B4: des(1)-Ac-[D-Tyr2,Hyp3,Thr5,Ser7,Arg(Me)9,Trp10]MS10 (peptide)
peptide: Ac-[dY][Hyp]NTFSL[Arg(Me)]W-NH2
SMILES: CNC(=N)NCCC[C@H](NC(=O)[C@H](CC(C)C)NC(=O)[C@H](CO)NC(=O)[C@H](Cc1ccccc1)NC(=O)[C@@H](NC(=O)[C@H](CC(N)=O)NC(=O)[C@@H]1C[C@@H](O)CN1C(=O)[C@@H](Cc1ccc(O)cc1)NC(C)=O)[C@@H](C)O)C(=O)N[C@@H](Cc1c[nH]c2ccccc12)C(N)=O
B5: des(1)-Ac-[D-Tyr2,Aad3,Thr5,Cha6,Ala(cPr)8,Arg(Me)9,Trp10]MS10 (peptide)
peptide: Ac-[dY][Aad]NT[Cha]G[Ala(cPr)][Arg(Me)]W-NH2
SMILES: CNC(=N)NCCC[C@H](NC(=O)[C@H](CC1CC1)NC(=O)CNC(=O)[C@H](CC1CCCCC1)NC(=O)[C@@H](NC(=O)[C@H](CC(N)=O)NC(=O)[C@H](CCCC(=O)O)NC(=O)[C@@H](Cc1ccc(O)cc1)NC(C)=O)[C@@H](C)O)C(=O)N[C@@H](Cc1c[nH]c2ccccc12)C(N)=O
B6: des(1)-Ac-[D-Tyr2,Hyp3,Alb4,Ser5,Cha6,Ala(cPr)8,Arg(Me)9,Trp10]MS10 (peptide)
peptide: Ac-[dY][Hyp][Dap(CONH2)]S[Cha]G[Ala(cPr)][Arg(Me)]W-NH2
SMILES: CNC(=N)NCCC[C@H](NC(=O)[C@H](CC1CC1)NC(=O)CNC(=O)[C@H](CC1CCCCC1)NC(=O)[C@H](CO)NC(=O)[C@H](CNC(N)=O)NC(=O)[C@@H]1C[C@@H](O)CN1C(=O)[C@@H](Cc1ccc(O)cc1)NC(C)=O)C(=O)N[C@@H](Cc1c[nH]c2ccccc12)C(N)=O
B7: des(1)-Ac-[D-Tyr2,Hyp3,Alb4,Ala5,Cha6,Ala(cPr)8,Arg(Me)9,Trp10]MS10 (peptide)
peptide: Ac-[dY][Hyp][Dap(CONH2)]A[Cha]G[Ala(cPr)][Arg(Me)]W-NH2
SMILES: CNC(=N)NCCC[C@H](NC(=O)[C@H](CC1CC1)NC(=O)CNC(=O)[C@H](CC1CCCCC1)NC(=O)[C@H](C)NC(=O)[C@H](CNC(N)=O)NC(=O)[C@@H]1C[C@@H](O)CN1C(=O)[C@@H](Cc1ccc(O)cc1)NC(C)=O)C(=O)N[C@@H](Cc1c[nH]c2ccccc12)C(N)=O
B8: des(1)-Ac-[D-Tyr2,Asp3,Thr5,Cha6,Ala(cPr)8,Arg(Me)9,Trp10]MS10 (peptide)
peptide: Ac-[dY]DNT[Cha]G[Ala(cPr)][Arg(Me)]W-NH2
SMILES: CNC(=N)NCCC[C@H](NC(=O)[C@H](CC1CC1)NC(=O)CNC(=O)[C@H](CC1CCCCC1)NC(=O)[C@@H](NC(=O)[C@H](CC(N)=O)NC(=O)[C@H](CC(=O)O)NC(=O)[C@@H](Cc1ccc(O)cc1)NC(C)=O)[C@@H](C)O)C(=O)N[C@@H](Cc1c[nH]c2ccccc12)C(N)=O
B9: des(1)-Ac-[D-Tyr2,Hyp3,Alb4,Dap5,Cha6,Ala(cPr)8,Arg(Me)9,Trp10]MS10 (peptide)
peptide: Ac-[dY][Hyp][Dap(CONH2)][Dap][Cha]G[Ala(cPr)][Arg(Me)]W-NH2
SMILES: CNC(=N)NCCC[C@H](NC(=O)[C@H](CC1CC1)NC(=O)CNC(=O)[C@H](CC1CCCCC1)NC(=O)[C@H](CN)NC(=O)[C@H](CNC(N)=O)NC(=O)[C@@H]1C[C@@H](O)CN1C(=O)[C@@H](Cc1ccc(O)cc1)NC(C)=O)C(=O)N[C@@H](Cc1c[nH]c2ccccc12)C(N)=O
B10: des(1)-Ac-[D-Tyr2,Hyp3,Thr5,Cha6,Ala(cPr)8,Trp10]MS10 (peptide)
peptide: Ac-[dY][Hyp]NT[Cha]G[Ala(cPr)]RW-NH2
SMILES: CC(=O)N[C@H](Cc1ccc(O)cc1)C(=O)N1C[C@H](O)C[C@H]1C(=O)N[C@@H](CC(N)=O)C(=O)N[C@H](C(=O)N[C@@H](CC1CCCCC1)C(=O)NCC(=O)N[C@@H](CC1CC1)C(=O)N[C@@H](CCCNC(=N)N)C(=O)N[C@@H](Cc1c[nH]c2ccccc12)C(N)=O)[C@@H](C)O
B11: des(1)-Ac-[D-Tyr2,Hyp3,Alb4,Gly5,Cha6,Ala(cPr)8,Arg(Me)9,Trp10]MS10 (peptide)
peptide: Ac-[dY][Hyp][Dap(CONH2)]G[Cha]G[Ala(cPr)][Arg(Me)]W-NH2
SMILES: CNC(=N)NCCC[C@H](NC(=O)[C@H](CC1CC1)NC(=O)CNC(=O)[C@H](CC1CCCCC1)NC(=O)CNC(=O)[C@H](CNC(N)=O)NC(=O)[C@@H]1C[C@@H](O)CN1C(=O)[C@@H](Cc1ccc(O)cc1)NC(C)=O)C(=O)N[C@@H](Cc1c[nH]c2ccccc12)C(N)=O

Target: human OT7T175 (metastin receptor) (human) (UniProt Q969F8)
Assay: cell-based or functional assay

Sequence of UniProt Q969F8 (Q969F8 whole entry L364H): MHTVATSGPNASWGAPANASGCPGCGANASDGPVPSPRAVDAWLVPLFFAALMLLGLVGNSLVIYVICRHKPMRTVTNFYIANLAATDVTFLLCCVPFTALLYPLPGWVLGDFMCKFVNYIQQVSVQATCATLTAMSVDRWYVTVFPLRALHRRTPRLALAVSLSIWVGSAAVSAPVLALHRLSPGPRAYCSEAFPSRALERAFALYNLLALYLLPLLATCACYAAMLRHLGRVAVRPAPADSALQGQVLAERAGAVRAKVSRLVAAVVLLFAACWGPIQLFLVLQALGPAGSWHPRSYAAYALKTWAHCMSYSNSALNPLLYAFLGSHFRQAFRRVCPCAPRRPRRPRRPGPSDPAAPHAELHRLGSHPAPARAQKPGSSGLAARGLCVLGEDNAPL

| Binder | Specific Activity (EC50 of test compound based on EC50 of Metastin (45-54); intracellular calcium, FLIPR) (ratio to EC50 of Metastin (45-54)) |
| --- | --- |
| Ac-[dY][Hyp][Dap(CONH2)]T[Cha]GL[Arg(Me)]W-NH2 (also: Gly7-Leu8 amide bond replaced by (E)-CH═CH-) [des(1)-Ac-[D-Tyr2,Hyp3,Alb4,Thr5,Cha6,Gly7Ψ((E)CH═CH)Leu8,Arg(Me)9,Trp10]MS10] | 0.4 |
| Ac-[dY][Hyp]NT[Cha]G[Cba][Arg(Me)]W-NH2 [des(1)-Ac-[D-Tyr2,Hyp3,Thr5,Cha6,Ala(cBu)8,Arg(Me)9,Trp10]MS10] | 0.5 |
| Ac-[dY][Hyp]NTFG[Ala(cPr)][Arg(Me)]W-NH2 [des(1)-Ac-[D-Tyr2,Hyp3,Thr5,Ala(cPr)8,Arg(Me)9,Trp10]MS10] | 0.8 |
| B1 | 0.6 |
| Ac-[dY]E[Dap(CONH2)]TFGL[Arg(Me)]W-NH2 (also: Gly7-Leu8 amide bond replaced by (E)-CH═CH-) [des(1)-Ac-[D-Tyr2,Glu3,Alb4,Thr5,Gly7Ψ((E)CH═CH)Leu8,Arg(Me)9,Trp10]MS10] | 0.5 |
| Ac-[dY]E[Dap(CONH2)]T[Cha]GL[Arg(Me)]W-NH2 (also: Gly7-Leu8 amide bond replaced by (E)-CH═CH-) [des(1)-Ac-[D-Tyr2,Glu3,Alb4,Thr5,Cha6,Gly7Ψ((E)CH═CH)Leu8,Arg(Me)9,Trp10]MS10] | 0.5 |
| Ac-[dY][Hyp]NT[Cha]G[Cha][Arg(Me)]W-NH2 [des(1)-Ac-[D-Tyr2,Hyp3,Thr5,Cha6,8,Arg(Me)9,Trp10]MS10] | 3.5 |
| B2 | 0.7 |
| B3 | 0.4 |
| Ac-[dY][Hyp][Cit]T[Cha]GL[Arg(Me)]W-NH2 (also: Gly7Ψ((E)CH═CH)Leu8: amide between Gly and Leu replaced by (E) alkene) [des(1)-Ac-[D-Tyr2,Hyp3,Cit4,Thr5,Cha6,Gly7Ψ((E)CH═CH)Leu8,Arg(Me)9,Trp10]MS10] | 0.9 |
| Ac-[dY][Hyp][Dap(CONH2)]TFGL[Arg(Me)]W-NH2 (also: Gly7Ψ((E)CH═CH)Leu8: amide between Gly and Leu replaced by (E) alkene) [des(1)-Ac-[D-Tyr2,Hyp3,Alb4,Thr5,Gly7Ψ((E)CH═CH)Leu8,Arg(Me)9,Trp10]MS10] | 0.6 |
| B4 | 0.6 |
| Ac-[dY]ENT[Cha]GL[Arg(Me)]W-NH2 (also: Gly7-Leu8 amide bond replaced by (E)-CH═CH-) [des(1)-Ac-[D-Tyr2,Glu3,Thr5,Cha6,Gly7Ψ((E)CH═CH)Leu8,Arg(Me)9,Trp10]MS10] | 0.5 |
| Ac-[dY][Hyp]NTF[Abu]L[Arg(Me)]W-NH2 [des(1)-Ac-[D-Tyr2,Hyp3,Thr5,Abu7,Arg(Me)9,Trp10]MS10] | 1 |
| B5 | 1.1 |
| B6 | 0.5 |
| B7 | 0.5 |
| Ac-[dY][Hyp]NT[Cba]G[Ala(cPr)][Arg(Me)]W-NH2 [des(1)-Ac-[D-Tyr2,Hyp3,Thr5,Ala(cBu)6,Ala(cPr)8,Arg(Me)9,Trp10]MS10] | 0.7 |
| Ac-[dY]ENTFGL[Arg(Me)]W-NH2 (also: Gly7-Leu8 amide bond replaced by (E)-CH═CH-) [des(1)-Ac-[D-Tyr2,Glu3,Thr5,Gly7Ψ((E)CH═CH)Leu8,Arg(Me)9,Trp10]MS10] | 0.6 |
| Ac-[dY][Hyp]NTFGL[Arg(Me)]W-NH2 (also: Phe5-Gly6 amide bond replaced by CH2S) [des(1)-Ac-[D-Tyr2,Hyp3,Thr5,Phe6Ψ(CH2S)Gly7,Arg(Me)9,Trp10]MS10] | 0.7 |
| Ac-[dY][Hyp]QT[Cha]GL[Arg(Me)]W-NH2 (also: Gly7Ψ((E)CH═CH)Leu8: amide between Gly and Leu replaced by (E) alkene) [des(1)-Ac-[D-Tyr2,Hyp3,Gln4,Thr5,Cha6,Gly7Ψ((E)CH═CH)Leu8,Arg(Me)9,Trp10]MS10] | 1.4 |
| Ac-[dY][Hyp]ET[Cha]GL[Arg(Me)]W-NH2 (also: Gly7Ψ((E)CH═CH)Leu8: amide between Gly and Leu replaced by (E) alkene) [des(1)-Ac-[D-Tyr2,Hyp3,Glu4,Thr5,Cha6,Gly7Ψ((E)CH═CH)Leu8,Arg(Me)9,Trp10]MS10] | 4.6 |
| B8 | 2.5 |
| B9 | 0.7 |
| B10 | 0.5 |
| B11 | 0.7 |
